Molecular target: the molecule itself
Test: crystal structure

B1: NaVAe1p, pore-only sodium channel protein derived from the Alkalilimnicola ehrlichei BacNaV NaVAe1 (domain or fragment)
chain: LLRAIPGIAWIALLLLVIFYVFAVMGTKLFAQSFPEWFGTLGASMYTLFQVMTLESWSMGIARPVIEAYPWAWIYFVSFILVSSFTVLNLFIGIIIESMQSAHWEAEDAKRIEQEQRAHDERLEMLQLIRDLSSKVDRLERRSGKR
stoichiometry N: 4

Source: article PMC3947372 (Journal of molecular biology, 2013)
